Where no end group is shown, it is not given here. [ ]: non-standard residue; d: D form.
T1: FPRL1 (UniProt P25090 1-351)
T1 sequence (looked up): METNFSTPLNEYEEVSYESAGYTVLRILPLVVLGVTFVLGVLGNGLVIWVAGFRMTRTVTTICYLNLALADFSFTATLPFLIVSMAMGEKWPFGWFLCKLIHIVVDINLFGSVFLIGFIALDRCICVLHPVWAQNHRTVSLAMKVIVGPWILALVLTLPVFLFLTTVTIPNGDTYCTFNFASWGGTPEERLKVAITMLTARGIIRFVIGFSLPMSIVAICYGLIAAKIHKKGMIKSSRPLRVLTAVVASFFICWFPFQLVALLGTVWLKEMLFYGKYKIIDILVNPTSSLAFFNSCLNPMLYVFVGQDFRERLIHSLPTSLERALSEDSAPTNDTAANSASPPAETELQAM

T2: FPR1 (UniProt P21462 1-350)
T2 sequence (looked up): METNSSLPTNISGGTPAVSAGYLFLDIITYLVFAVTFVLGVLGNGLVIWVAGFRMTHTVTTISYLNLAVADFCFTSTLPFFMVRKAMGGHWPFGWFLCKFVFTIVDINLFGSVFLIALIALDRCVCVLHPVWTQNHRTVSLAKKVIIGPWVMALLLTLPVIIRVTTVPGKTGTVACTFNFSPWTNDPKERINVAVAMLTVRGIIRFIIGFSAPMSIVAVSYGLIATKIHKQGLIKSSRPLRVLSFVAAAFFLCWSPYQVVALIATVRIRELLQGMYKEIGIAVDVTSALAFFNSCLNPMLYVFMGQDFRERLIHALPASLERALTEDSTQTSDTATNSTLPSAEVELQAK


Assays:
Test in all cases: cell-based or functional assay
F2RL1 = F2RL1 (UniProt P55085 26-397, limits assumed)
FPRL1 = target: T1, FPRL1
FPR1 = target: T2, FPR1

Binder	EC50 (RC50), arrestin, agonist mode (F2RL1) [nM]	EC80, arrestin, agonist mode (F2RL1) [nM]	EC80, arrestin, agonist mode (FPRL1) [nM]	EC80, arrestin, agonist mode (FPR1) [nM]
SLIGRL-NH2 [SLIGRL-NH2]	552	2130	–	–
WKYMV[dM]-NH2 [WKYMVm-NH2]	–	–	11.8	25.2

— patent US20260184748A1 (University of Pennsylvania, published 2026)
